Assay results: patent US9127038B2, “Kisspeptide-pentasaccharide conjugates” (Merck Sharp & Dohme Corp., priority 2011, dated 2015)
Where a name gives a salt, the structure may show the parent alone. Read-outs that look alike come from different tables or passages of the source. One block for each compound: values may come before it. Square brackets hold non-standard residues; d marks the D form. Peptide text beside a SMILES is read from it. Arg(Me) = CNC(=N)NCCC[C@H](N)C(=O)O; azaGly = NNC(=O)O

Legend:
human KISS-receptor = molecular target: T1, human KISS-receptor (Homo sapiens, UniProt Q969F8); test: NFAT-regulated luciferase reporter gene assay in CHO-k1 cells, agonist activity; format: cell-based
T1 construct: expressed in transfected cells; host or cells: CHO-k1 cells that also express mitochondrially targeted aequorin, Gα16 and an NFAT-luciferase reporter
T1 sequence (Q969F8 whole entry): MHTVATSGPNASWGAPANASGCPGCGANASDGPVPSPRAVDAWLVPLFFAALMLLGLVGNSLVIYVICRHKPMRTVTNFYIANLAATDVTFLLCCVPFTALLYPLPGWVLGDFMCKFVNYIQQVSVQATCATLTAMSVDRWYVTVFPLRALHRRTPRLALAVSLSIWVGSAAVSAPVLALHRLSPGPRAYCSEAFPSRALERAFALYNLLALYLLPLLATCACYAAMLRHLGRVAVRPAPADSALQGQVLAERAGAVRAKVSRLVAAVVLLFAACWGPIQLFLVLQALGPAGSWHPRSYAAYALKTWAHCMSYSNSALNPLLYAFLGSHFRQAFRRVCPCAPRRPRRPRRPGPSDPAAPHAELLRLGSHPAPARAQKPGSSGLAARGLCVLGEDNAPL
Description: CHO-k1 cells were used that expressed the mitochondrially targeted aequorine and Gα16 (from Euroscreen, Brussels, Belgium), a Nuclear Factor of Activated T-cells-responsive element (NFAT) under the control of a promoter directing the expression of a firefly luciferase reporter gene (pNFAT-TALuc obtained from Clontech, Mountain View, Calif.), and the human GPR54-R Hygro(+)-hGPR54WT c4; MSD). These cells were cultured in Dulbecco's Modified Eagle Medium: Nutrient Mixture F-12 (DMEM/F12) (Invitrogen, Carlsbad, Calif.), supplemented with 10% (vol/vol) filtered bovine serum (Hyclone, Thermo Fisher Scientific, Waltham, Mass.), 100 U/ml penicillin G, 100 μg/ml streptomycin, 400 μg/ml Geneticin and 400 μg/ml Hygromycin (Invitrogen). […] Kisspeptin-10 was used as a standard. […] When the conjugates were tested in the presence of a final percentage of 20% human serum, 10 μl assay medium containing 60% human serum (Sigma-Aldrich, #H4522) was added to the wells. In the absence of human serum, 10 μl of assay medium was added. Cells were harvested and diluted to a concentration of 7.5E5 cells/ml in assay medium without 0.1% BSA. 10 μl of cell solution was added to the compound wells. After incubation for 4 hours in a humidified atmosphere at 5% CO2 and 37° C., the plate was left at room temperature for 30 minutes. Subsequently, 15 μl of Steadylite™ solution (PerkinElmer, Boston, Mass.) was added and the cells, protected from light, were allowed to lyse for 30 min at room temperature. Luminescence, indicated as relative luminescence units (RLU), was measured on an Envision Multilabel reader (PerkinElmer).

[1] = In vitro stability in human serum (LC/MS/MS); conditions: for half-life at 750 nM: human
Description: Test compound is added to 1.5 mL human serum in a 96-wells deepwell plate in a final concentration of 750 nM. The compound is mixed and immediately thereafter a 100 μl sample is harvested in a 96-wells 2D-tuberack (T=0 sample). The 2 D-tubes are closed with rubber tube caps and the sample plate is stored at −20° CF. in the freezer. The deepwell plate is put into an incubator which was set at humidified (95%) atmosphere at 5-7% CO2 and 37° C. for an incubation period of maximum 240 h. During this incubation period, samples of 100 μl are collected on various time intervals, dependent on the test compound used; time points 0, 1, 2, 3, 6, 24, 48, 72 h in case of Kisspeptides and 0, 3, 6, 24, 48, 72, 168, 240 h in case of kisspeptide-pentasaccharide conjugates. Sample plates are put on ice in case of sampling and stored at −20° C. until analysis by LC/MS/MS.
For LC-MS/MS analysis, the compounds are separated over an XTerra RP8 column and using a gradient mobile phase of ammonium acetate buffer and acetonitrile at a fixed column temperature. MS/MS detection is done with a triple quadrupole mass spectrometer and employing negative ion electrospray ionization. The mass spectrometer is set up to achieve a known degree of in source fragmentation, where the initially formed multiply charged negative ions lose one or more SO3 molecules. The most abundant of these secondary ions are then subjected to a common MS/MS experiment in which a single SO3 loss is monitored. The Q1 and Q3 mass filter settings for this MS/MS experiment have commonly been determined in method development. […] Internal standardization is accomplished by adding a different conjugate of approximately the same size to the bioanalytical samples.
The rate of compound loss is expressed as a half-life (plasma t^1/2). The t^1/2 for the test compound can be determined by plotting the natural logarithm (In) of the measured concentrations against time and fitting the line through all data points. The gradient of this line is the first order rate constant (k) for substrate disappearance and is determined by regression analysis. The rate constant is converted to a half-life according to the following equation: In vitro half-life(t^1/2)=−ln 2/k

in vivo = test: in vivo
Description: The pharmacokinetics of conjugate C8 were determined after administration of 40 nmol/kg IV in male and of 200 nmol/kg SC in female Sprague-Dawley rats.

[2] = cited from earlier work
[3] = after clomiphene citrate treatment; cited from earlier work
[4] = female, Sprague-Dawley, rat, plasma, sc, 0.2 umol/kg
[5] = female, Sprague-Dawley, rat, plasma, sc, 200 nmol/kg
[6] = female, Sprague-Dawley, rat, plasma, sc, 0.6 umol/kg
[7] = male, Sprague-Dawley, rat, plasma, iv, 40 nmol/kg
[8] = absence of human serum, read-out: pEC50 (converted)
[9] = presence of 20% human serum, read-out: pEC50 serum (converted)

Structure (SMILES): CNC(=N)NCCC[C@H](NC(=O)[C@H](CC(C)C)NC(=O)NNC(=O)[C@H](Cc1ccccc1)NC(=O)[C@@H](NC(=O)[C@H](CC(N)=O)NC(=O)[C@H](Cc1c[nH]c2ccccc12)NC(=O)[C@H](CC(N)=O)NC(=O)[C@@H](Cc1ccc(O)cc1)NC(=O)CCCCn1cc(CCC(=O)NCCOCCOCCOCCO[C@H]2[C@H](OC)[C@@H](OC)[C@@H](O[C@H]3[C@H](OC)[C@@H](OC)[C@H](O[C@H]4[C@H](OS(=O)(=O)O)[C@@H](OS(=O)(=O)O)[C@@H](O[C@H]5[C@H](OC)[C@@H](OC)[C@H](O[C@H]6[C@H](OS(=O)(=O)O)[C@@H](OS(=O)(=O)O)[C@@H](OC)O[C@@H]6COS(=O)(=O)O)O[C@H]5C(=O)O)O[C@@H]4COS(=O)(=O)O)O[C@@H]3C(=O)O)O[C@@H]2COS(=O)(=O)O)nn1)C(C)O)C(=O)N[C@@H](Cc1ccccc1)C(N)=O (stereo partly shown) [Conjugate C8]
EC50 (human KISS-receptor; pEC50, absence of human serum): 0.158 nM
EC50 (human KISS-receptor; pEC50 serum, presence of 20% human serum): 7.24 nM
half-life at 750 nM [1]: > 240 h
AUCN(0-∞) IV (in vivo; 40 nmol/kg IV, male rats): 60.4 nM·kg·h/µg
AUCN(0-∞) SC (in vivo; 200 nmol/kg SC, female rats): 56.5 nM·kg·h/µg
F (in vivo; 200 nmol/kg SC, female rats): 94%
AUC(0-inf) (in vivo; [4]): 38.7 µM·h
Cmax (in vivo; [4]): 2310 nM
level at time molar at 24 h (in vivo; [4]): 490 nM
Tmax (in vivo; female, Sprague-Dawley, rat, plasma, sc, 0.2 umol/kg, Tmax, SC 0.2 μmol/kg, female rats): 2.7 h
Cmax (in vivo; [5]): 2310 nM
bioavailability (in vivo; [5]): 93.5%
Tmax (in vivo; female, Sprague-Dawley, rat, plasma, sc, 200 nmol/kg, Tmax, 200 nmol/kg SC, female rats): 2.7 h
Tmax (in vivo; female, Sprague-Dawley, rat, plasma, sc, 200 nmol/kg, tmax, following subcutaneous administration): 2.7 to 3.3 h
AUC(0-inf) (in vivo; [6]): 90.5 µM·h
Cmax (in vivo; [6]): 5180 nM
level at time molar at 24 h (in vivo; [6]): 1100 nM
Tmax (in vivo; female, Sprague-Dawley, rat, plasma, sc, 0.6 umol/kg, Tmax, SC 0.6 μmol/kg, female rats): 1.7 h
Vd (in vivo; [7]): 0.067 L/kg
clearance (in vivo; [7]): 4.8 mL/h/kg
half-life (in vivo; [7]): 11.5 h

EC50 (human KISS-receptor; [8]): 0.1 nM
EC50 (human KISS-receptor; [9]): 0.0501 nM
half-life at 750 nM [1]: 5.4 h
stability (in words) [1]: not sufficiently stable
Structure (SMILES): CNC(=N)NCCC[C@H](NC(=O)[C@H](CC(C)C)NC(=O)NNC(=O)[C@H](Cc1ccccc1)NC(=O)[C@@H](NC(=O)[C@H](CC(N)=O)NC(=O)[C@H](Cc1c[nH]c2ccccc12)NC(=O)[C@H](CC(N)=O)NC(=O)[C@H](N)Cc1ccc(O)cc1)[C@@H](C)O)C(=O)N[C@@H](Cc1ccccc1)C(N)=O [Conjugate P29, reference compound] (H-[dY]NWNTF[azaGly]L[Arg(Me)]F-NH2)

EC50 (human KISS-receptor; [8]): 1 nM
EC50 (human KISS-receptor; [9]): 1 nM
stability (in words) [1]: not sufficiently stable
Structure (SMILES): CC(C)C[C@H](NC(=O)CNC(=O)[C@H](Cc1ccccc1)NC(=O)[C@H](CO)NC(=O)[C@H](CC(N)=O)NC(=O)[C@H](Cc1c[nH]c2ccccc12)NC(=O)[C@H](CC(N)=O)NC(=O)[C@@H](N)Cc1ccc(O)cc1)C(=O)N[C@@H](CCCNC(=N)N)C(=O)N[C@@H](Cc1ccccc1)C(N)=O [Kiss-10, reference compound]
half-life in human plasma [2]: ~0.167 h

Structure (SMILES): CCN(CC)CCOc1ccc(C(=C(Cl)c2ccccc2)c2ccccc2)cc1 [clomiphene citrate]
ovulation rates [3]: 60%-90%
pregnancy rates [3]: 20%-40%
